Target: the molecule itself
Test: cryo-EM structure; single-particle cryo-EM of purified EXTL3ΔN at 0.1-0.4 mg/ml, C2 symmetry; apo (2.4 Å) and with 10 mM UDP and 2.5 mM MnCl2 (2.9 Å); buffer 50 mM Tris-HCl pH 6.8, 100 mM NaCl, 50 mM KCl

B1: EXTL3ΔN, soluble form of human exostosin-like 3 (EXTL3) lacking the first 51 amino acids (enzyme, UniProt O43909 52-919, looked up)
chain: TTLDEADEAGKRIFGPRVGNELCEVKHVLDLCRIRESVSEELLQLEAKRQELNSEIAKLNLKIEACKKSIENAKQDLLQLKNVISQTEHSYKELMAQNQPKLSLPIRLLPEKDDAGLPPPKATRGCRLHNCFDYSRCPLTSGFPVYVYDSDQFVFGSYLDPLVKQAFQATARANVYVTENADIACLYVILVGEMQEPVVLRPAELEKQLYSLPHWRTDGHNHVIINLSRKSDTQNLLYNVSTGRAMVAQSTFYTVQYRPGFDLVVSPLVHAMSEPNFMEIPPQVPVKRKYLFTFQGEKIESLRSSLQEARSFEEEMEGDPPADYDDRIIATLKAVQDSKLDQVLVEFTCKNQPKPSLPTEWALCGEREDRLELLKLSTFALIITPGDPRLVISSGCATRLFEALEVGAVPVVLGEQVQLPYQDMLQWNEAALVVPKPRVTEVHFLLRSLSDSDLLAMRRQGRFLWETYFSTADSIFNTVLAMIRTRIQIPAAPIREEAAAEIPHRSGKAAGTDPNMADNGDLDLGPVETEPPYASPRYLRNFTLTVTDFYRSWNCAPGPFHLFPHTPFDPVLPSEAKFLGSGTGFRPIGGGAGGSGKEFQAALGGNVPREQFTVVMLTYEREEVLMNSLERLNGLPYLNKVVVVWNSPKLPSEDLLWPDIGVPIMVVRTEKNSLNNRFLPWNEIETEAILSIDDDAHLRHDEIMFGFRVWREARDRIVGFPGRYHAWDIPHQSWLYNSNYSCELSMVLTGAAFFHKYYAYLYSYVMPQAIRDMVDEYINCEDIAMNFLVSHITRKPPIKVTSRWTFRCPGCPQALSHDDSHFHERHKCINFFVKVYGYMPLLYTQFRVDSVLFKTRLPHDKTKCFKFI
modifications: partial N-glycans modelled at Asn592 and Asn790; intermolecular disulfide bridges between Cys793 and Cys915
notes: human exostosin-like 3 (EXTL3), amino acids 52-919; holds the predicted coiled coil, the GT47 domain, the inter-domain linker and the GT64 domain; lacks the transmembrane helix; Only the 170 kDa globular part (GT47, linker, GT64) is seen in the map; the coiled coil is not visible; also called EXTL3∆N; secretory EXTL3∆N
  stoichiometry N: 2

From PMC9178029, “The structure of EXTL3 helps to explain the different roles of bi-domain exostosins in heparan sulfate synthesis” (Nature Communications, 2022)
